± gives the uncertainty stated by the source.

A short description of this series: self-splicing fitness, log relative to wild type (ln ratio); higher = more splicing; Tetrahymena group I intron in knt gene, E. coli kanamycin selection, DiMSum; sequences stand for … in CUCUCU…GGAGGGAAAAGUUAUCAGGCAUGCACCUGGUAGCUAGUCUUUAAACCAAUAGAUUGCAUCGGUUUAAAAGGCAAGACCGUCAAAUUGCGGGAAAGGGGUCAACAGCCGUUCAGUACCAAGUCUCAGGGGAAACUUUGAGAUGGCCUUGCAAAGGGUAUGGUAAUAAGCUGACGGACAUGGUCCUAACCACGCAGCCAAGUCCUAAGUCAACAGAUCUUCUGUUGAUAUGGAUGCAGUUCACAGACUAAAUGUCGGUCGGGGAAGAUGUAUUCUUCUCAUAAGAUAUAGUCGGACCUCUCCUUAAUGGGAGCUAGCGGAUGAAGUGAUGCAACACUGGAGCCGCUGGGAACUAAUUUGUAUGCGAAAGUAUAUUGAUUAGUUUUGGAGUACUCGUGGUCG
Summed up: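 Colonies from six replicate transformations of E. coli BL21(DE3) were pooled and amplicon-sequenced on an Illumina HiSeq 2500. The library placed an intron with all eight P1ex-region nucleotides randomised inside the knt kanamycin-resistance gene on pET-22b(+), and cells grew overnight at 37°C or 30°C on LB agar with or without 25 μg/mL kanamycin (plus 100 μg/mL carbenicillin, 50 μM IPTG, 0.2% rhamnose). Fitness is the DiMSum error-weighted combination of wild-type-normalised replicate fold changes, kanamycin versus none.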

Regarding ACGGAGCAAUAUUACGCGUC, the “self-splicing fitness (ln)” value (37 °C) is -1.92 ± 0.33.

On to AAGUAGCAAUAUUACGCAUA, for which the “self-splicing fitness (ln)” value is, setting by setting: (30 °C) -1.31 ± 0.15; (37 °C) -0.759 ± 0.15. As for AAUCAGCAAUAUUACGUACU, the “self-splicing fitness (ln)” value by setting is: (30 °C) 0.336 ± 0.084; (37 °C) 0.692 ± 0.11.

On to GGUAAGCAAUAUUACGGCAU, for which the “self-splicing fitness (ln)” value runs as follows: (30 °C) -0.173 ± 0.078; (37 °C) 0.827 ± 0.11. Consider UCAGAGCAAUAUUACGCUUA, for which the “self-splicing fitness (ln)” value is -2.91 ± 0.24 (30 °C) and -2.48 ± 0.18 (37 °C).

CAGAAGCAAUAUUACGUGUG: the “self-splicing fitness (ln)” value by setting is: (30 °C) -3.01 ± 0.074; (37 °C) -2.19 ± 0.082. For GUUUAGCAAUAUUACGAUCA, the “self-splicing fitness (ln)” value (30 °C) is -1.38 ± 0.31 and the “self-splicing fitness (ln)” value (37 °C) was -0.619 ± 0.16. Regarding UCGUAGCAAUAUUACGUGUU, the “self-splicing fitness (ln)” value runs as follows: (30 °C) -3.06 ± 0.21; (37 °C) -2.46 ± 0.19. For GCUAAGCAAUAUUACGUUUU the same measures were -2 ± 0.093 and -0.945 ± 0.1. In the case of CCUAAGCAAUAUUACGCUUA, the “self-splicing fitness (ln)” value is -3.09 ± 0.18 (30 °C) and -1.97 ± 0.29 (37 °C). CUCAAGCAAUAUUACGAACU: the “self-splicing fitness (ln)” value (30 °C) is -3.03 ± 0.2 and the “self-splicing fitness (ln)” value (37 °C) is -1.27 ± 0.17. Regarding GCACAGCAAUAUUACGGAGA, the “self-splicing fitness (ln)” value (30 °C) was -2.85 ± 0.12 and the “self-splicing fitness (ln)” value (37 °C) was -2.16 ± 0.13. Regarding ACCAAGCAAUAUUACGAGAU, the “self-splicing fitness (ln)” value is -3.84 ± 0.13 (30 °C) and -2.65 ± 0.16 (37 °C). Take UUGGAGCAAUAUUACGAUAU: the “self-splicing fitness (ln)” value (37 °C) is -2.49 ± 0.32.

As to CAAUAGCAAUAUUACGGGAU, the “self-splicing fitness (ln)” value was -3.36 ± 0.31 (30 °C) and -2.57 ± 0.35 (37 °C). As to CGAGAGCAAUAUUACGGCAC, the “self-splicing fitness (ln)” value (30 °C) was -3.72 ± 0.3 and the “self-splicing fitness (ln)” value (37 °C) is -2.36 ± 0.23. As for CUGAAGCAAUAUUACGAUUG, the “self-splicing fitness (ln)” value is 0.168 ± 0.099 (30 °C) and -0.000234 ± 0.12 (37 °C). In the case of CAAGAGCAAUAUUACGUAUU, the “self-splicing fitness (ln)” value is, setting by setting: (30 °C) -3.55 ± 0.23; (37 °C) -1.83 ± 0.19. For ACGAAGCAAUAUUACGAGUC, the “self-splicing fitness (ln)” value runs as follows: (30 °C) -4.22 ± 0.24; (37 °C) -2.21 ± 0.19. Turning to AUCGAGCAAUAUUACGCCAU, the “self-splicing fitness (ln)” value is -2.34 ± 0.31 (30 °C) and -2.79 ± 0.3 (37 °C). For AACAAGCAAUAUUACGUGUU, the “self-splicing fitness (ln)” value (30 °C) was -4.01 ± 0.19 and the “self-splicing fitness (ln)” value (37 °C) was -2.05 ± 0.12. As to ACGGAGCAAUAUUACGCGCU, the “self-splicing fitness (ln)” value by setting is: (30 °C) -3.23 ± 0.3; (37 °C) -1.17 ± 0.21. Consider GUUCAGCAAUAUUACGGGCG, for which the “self-splicing fitness (ln)” value was -1.57 ± 0.15 (30 °C) and -0.592 ± 0.15 (37 °C). UACAAGCAAUAUUACGUGGG: the “self-splicing fitness (ln)” value is -3.82 ± 0.21 (30 °C) and -3.3 ± 0.24 (37 °C). In the case of UUAUAGCAAUAUUACGUGCU, the “self-splicing fitness (ln)” value was -2.75 ± 0.16 (30 °C) and -1.91 ± 0.14 (37 °C). Turning to CCUAAGCAAUAUUACGGCCG, the “self-splicing fitness (ln)” value reads like this: (30 °C) -0.351 ± 0.18; (37 °C) -0.367 ± 0.22.

On to UGUUAGCAAUAUUACGACAU, for which the “self-splicing fitness (ln)” value was -2.59 ± 0.021 (30 °C) and -1.28 ± 0.035 (37 °C). With UCAUAGCAAUAUUACGGAUG, the “self-splicing fitness (ln)” value by setting is: (30 °C) -2.58 ± 0.21; (37 °C) -2.07 ± 0.21. For CUUUAGCAAUAUUACGUAAC, the “self-splicing fitness (ln)” value (37 °C) was -1.64 ± 0.37. For the sequence ACGAAGCAAUAUUACGCAAG, the “self-splicing fitness (ln)” value runs as follows: (30 °C) -1.02 ± 0.14; (37 °C) -0.171 ± 0.18.

For UUGUAGCAAUAUUACGGCAU, the “self-splicing fitness (ln)” value reads like this: (30 °C) -0.835 ± 0.096; (37 °C) 0.641 ± 0.11. Turning to UGUAAGCAAUAUUACGUCGU, the “self-splicing fitness (ln)” value is, setting by setting: (30 °C) -3.66 ± 0.24; (37 °C) -1.97 ± 0.18. As to UUGAAGCAAUAUUACGGCGU, the “self-splicing fitness (ln)” value is, setting by setting: (30 °C) -0.215 ± 0.11; (37 °C) 0.00688 ± 0.13. Regarding GAUGAGCAAUAUUACGUGCU, the “self-splicing fitness (ln)” value (30 °C) was -2.91 ± 0.44. CCGCAGCAAUAUUACGGCCC: the “self-splicing fitness (ln)” value (30 °C) is -3.3 ± 0.48. Turning to CGGAAGCAAUAUUACGCCAU, the “self-splicing fitness (ln)” value reads like this: (30 °C) -3.61 ± 0.34; (37 °C) -2.84 ± 0.32.

As for UCAAAGCAAUAUUACGUACG, the “self-splicing fitness (ln)” value (30 °C) is -0.29 ± 0.067 and the “self-splicing fitness (ln)” value (37 °C) came out at 0.0719 ± 0.077. For AGUAAGCAAUAUUACGGGGA, the “self-splicing fitness (ln)” value is -3.89 ± 0.31 (30 °C) and -2.3 ± 0.3 (37 °C). For CUGGAGCAAUAUUACGACGG, the “self-splicing fitness (ln)” value by setting is: (30 °C) -3.79 ± 0.38; (37 °C) -3.09 ± 0.43.

For the origin of these results see the supplement of paper PMC7877785.
